In the supplement of paper PMC10598134:
± gives the standard deviation.

Test: collision cross section of unmodified peptide (TIMS, N2, iRT-aligned); higher = larger / more extended gas-phase ion
Outline: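 Collision cross section was derived from the Mason-Schamp equation. Each value averages 1–3 technical replicates of the most abundant feature per charge state, measured on a timsTOF Pro/HT in dda-PASEF mode (nitrogen, ~2.4 mbar) after a 120-min nanoflow C18 gradient at 60 °C. Synthetic peptide pools (~100 fmol/µL in 2% acetonitrile/0.1% formic acid, iRT standard spiked 1:40) were identified with MaxQuant, and 1/K0 was calibrated with three reference ions and aligned run-wise to the median iRT peptide deviation.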

Row | Substance | collision cross section (charge state: 2) [Å²] | collision cross section (charge state: 3) [Å²]
1 | VGLQVVAVKAPGFGDNR | 462.44 ± 2.5 | 487.54 ± 2.5
2 | VGTASVLQPVKK | 400.02 ± 0.9 | 461.91 ± 3
3 | VGVEAKQPNSAIR | 404.68 ± 1.4 | 493.5 ± 7.8
4 | VGVEVPDVNIEGPEGKLK | 456.21 ± 2.8 | 537.32 ± 2.3
5 | VGYPGPSGPLGAR | 357.93 ± 0.58 | 439.38 ± 0.85
6 | VGYPGPSGPLGARGIPGIK | 447.51 ± 0.68 | 562.22 ± 0.35
7 | VHATSTYR | 325.88 ± 0.49 | 398.18 ± 1.6
8 | VILENIASHEPR | 417.03 ± 1.4 | 473.55 ± 0.22
9 | VIVGGSSEYK | 346.7 ± 0.59 | –
10 | VLATQPGPGRGR | 368.04 ± 0.27 | 447.7 ± 3
11 | VLDSGAPIKIPVGPETLGR | 485.73 ± 3 | 510.9 ± 2.1
12 | VLPSITTEILK | 373.13 ± 0.14 | –
13 | VLSIGDGIAR | 348.04 ± 0.14 | –
14 | VLTANSNPSSPSAAKR | 431.51 ± 2 | 517.98 ± 8.8
15 | VMVAPISGSVTTGTK | 396.94 ± 0.14 | –
16 | VNALKNLQVK | 370.39 ± 1.1 | 436.61 ± 6
17 | VNIGQGSHPQKVK | 416.89 ± 2.1 | 469.44 ± 3.7
18 | VNVEAPDVNLEGLGGKLK | 454.51 ± 2.9 | 537.97 ± 2.9
19 | VPGALAAAKAAK | 365.46 ± 0.4 | 442.33 ± 1.2
20 | VPGVGLPGVYPGGVLPGAR | 445.04 ± 0.9 | 532.89 ± 0.34
21 | VPQAQPTKPALK | 384.79 ± 0.67 | 486.38 ± 2.7
22 | VPTTEKPTVTVNFR | 427.25 ± 2.6 | 517.02 ± 4.3

Row | Substance | collision cross section (charge state: 2) [Å²] | collision cross section (charge state: 3) [Å²]
23 | VQFAPEK | 317.04 ± 1.1 | –
24 | VQFAPEKPGPQPSAETTR | – | 507.38 ± 9.7
25 | VQGGALEDSQLVAGVAFKK | 499.26 ± 4.6 | 546.92 ± 0.83
26 | VRFHNPR | 337.63 ± 0.7 | 406.2 ± 6.3
27 | VRLQTTLR | 347.32 ± 0.41 | 442.81 ± 6.5
28 | VSFLSALEEYTK | 392.46 ± 0.78 | –
29 | VSPASSVDSNIPSSQGYKK | 469.69 ± 3.1 | 542.55 ± 1.8
30 | VTGGIFSVTK | 335.98 ± 0.58 | –
31 | VTLEVGKVIQQGR | 428.45 ± 2.5 | 496.48 ± 2.3
32 | VTPHPSPRGSPLPTPK | 427.24 | 550.88 ± 0.55
33 | VTRYPILGIPQAHR | – | 523.45 ± 1.1
34 | VVDLLAPYAK | 358.2 ± 7.9 | –
35 | VVPGYGHAVLR | 378.3 ± 0.16 | 449.83 ± 0.86
36 | VYIASSSGSTAIKK | 426.35 ± 1.9 | 494.89 ± 3.4
37 | VYPSSLSK | 317.31 ± 0.73 | –
38 | VYSGHQGR | 325.3 ± 0.79 | 409 ± 1.1
39 | VYSLFLDESR | 376.99 ± 0.94 | –
40 | VYVGNLGTGAGK | 357.65 ± 0.15 | –
41 | YADLTEDQLPSCESLK | 447.81 ± 1 | –
42 | YEATSVQQK | 342.24 ± 1.4 | –
43 | YEEIVKEVSTYIK | 443.47 ± 2.8 | 492.72 ± 2.3
44 | YEITEQR | 326.96 ± 0.72 | –

Row | Substance | collision cross section (charge state: 2) [Å²] | collision cross section (charge state: 3) [Å²]
45 | YEQEHAAIQDKLFQVAK | – | 555.79 ± 2.3
46 | YGLIFHSTFIGRAAAK | – | 526.88
47 | YGRGQLNYPLPDFSK | 433.52 | 510.01 ± 10
48 | YHEDIFGLTLR | 388.91 ± 0.75 | 462.33 ± 2
49 | YIDNQVVSTKGER | 414.64 ± 0.66 | 500.48 ± 1
50 | YIEIYVQKVNPSR | 435.38 ± 2.7 | 505.68 ± 2.1
51 | YIGTGHADTTK | 357.91 ± 0.48 | 452.61 ± 1.1
52 | YILIPASQQPK | 375.08 ± 0.48 | –
53 | YLHDESGLNR | 361.42 ± 0.55 | 447.46 ± 1.1
54 | YRGDYDR | 327.87 ± 0.56 | 412.63 ± 6.2
55 | YSRGAGLGFSTAPNK | 407.91 ± 1.8 | 476.78 ± 0.4
56 | YSSNLGNFNYEQRGAFR | – | 529.47 ± 0.012
57 | YSSSSIPEPFGSRGSPR | 433.42 | 521.94 ± 0.21
58 | YSTSGSSGLTTGK | 373.3 ± 0.54 | –
59 | YTAILNQIPSHSSSIR | 475.98 ± 0.82 | 510.98 ± 3.8
60 | YTAQVDAEEK | 355.03 ± 0.55 | –
61 | YTCSFCGK | 338.71 ± 0.48 | –
62 | YTQVGPDHNR | 354.55 ± 0.7 | 423.12 ± 2
63 | YTTNNSSEQR | 353.04 ± 0.15 | –
64 | YVGESEANIR | 358.37 ± 0.55 | –
65 | YVHADAPTNK | 347.85 ± 2.8 | 415.08 ± 2
